From patent US20050037477A1 (BOARD OF REGENTS OF THE UNIVERSITY OF OKLAHOMA, published 2005)

Molecular target: T1, human C-terminal HPC-4 epitope-tagged C1β3Gal-T (core 1 β3-galactosyltransferase), full-length (human, UniProt Q9NS00 1-363)
T1 construct: mature; also called HPC4-tagged C1β3Gal-T; recombinant C1β3Gal-T
Assay: Ni-NTA capture of His6-tagged wtCosmc-1 from Hi-5 and 293T cell extracts, C1β3Gal-T activity on the beads
Description: Capture of Human Cosmc-1 on Ni-NTA-Superflow-The Ni-NTA-Superflow beads (100 ml) (Qiagen, Inc.) equilibrated with the Ni-NTA washing buffer containing 50 mM NaH₂PO₄, 300 mM NaCl, 20 mM imidazole, 0.1% Triton X-100 (pH 7.8) were incubated with the cell extracts overnight at 4° C. on a rotator. The beads were washed 5 times with 1 ml of the washing buffer. One portion of the beads was removed for C1β3Gal-T enzyme assay. The bound material in the other portion was eluted with 100 ml of eluting solution (50 mM NaH₂PO₄, 300 mM NaCl, 250 mM imidazole, and 0.1% Triton X-100).
To confirm that Cosmc-1 and C1β3Gal-T can associate, we performed Western Blots on the HPC4-tagged C1β3Gal-T expressed in Hi5 cells and 293T cells with or without His₆-tagged wtCosmc-1 or mCosmc-1. When HPC4-tagged C1β3Gal-T was expressed in Hi5 cells in the absence or presence of wtCosmc-1 or mCosmc-1, a considerable amount protein was generated (FIG. 2G), but the enzyme lacked activity except when co-expressed with wtCosmc-1 (FIG. 2A-C). More importantly, HPC4-tagged C1β3Gal-T was present with His₆-tagged wtCosmc-1 when the latter was captured on Ni-NTA (FIGS. 2G,H). […] There was a slight amount of HPC4-tagged C1β3Gal-T detected in the Ni-NTA bound material in the absence of His₆-tagged wtCosmc-1 in 293T cells (FIG. 2H). […]

T1 sequence (Q9NS00 other isoform, or with tags, fused parts or gaps): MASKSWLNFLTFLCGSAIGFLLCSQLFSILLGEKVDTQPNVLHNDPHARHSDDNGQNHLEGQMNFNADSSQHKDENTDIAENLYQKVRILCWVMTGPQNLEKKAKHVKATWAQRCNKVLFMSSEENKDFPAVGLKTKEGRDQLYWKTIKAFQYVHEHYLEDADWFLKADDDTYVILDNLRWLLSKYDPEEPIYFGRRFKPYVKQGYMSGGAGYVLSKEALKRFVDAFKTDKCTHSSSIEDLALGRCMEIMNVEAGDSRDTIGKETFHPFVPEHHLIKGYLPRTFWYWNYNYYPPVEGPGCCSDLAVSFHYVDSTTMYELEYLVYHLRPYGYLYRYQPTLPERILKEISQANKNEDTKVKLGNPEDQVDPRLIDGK

B1: human C-terminal His6-tagged Cosmc-1 (wild-type; Core 1 β3-Gal-T Specific Molecular Chaperone-1) (other)
chain: MLSESSSFLKGVMLGSIFCALITMLGHIRIGHGNRMHHHEHHHLQAPNKEDILKISEDERMELSKSFRVYCIILVKPKDVSLWAAVKETWTKHCDKAEFFSSENVKVFESINMDTNDMWLMMRKAYKYAFDKYRDQYNWFFLARPTTFAIIENLKYFLLKKDPSQPFYLGHTIKSGDLEYVGMEGGIVLSVESMKRLNSLLNIPEKCPEQGGMIWKISEDKQLAVCLKYAGVFAENAEDADGKDVFNTKSVGLSIKEAMTYHPNQVVEGCCSDMAVTFNGLTPNQMHVMMYGVYRLRAFGHIFNDALVFLPPNGSDNDHHHHHH
notes: Co-expressed with C1β3Gal-T in Hi-5 insect cells or 293T cells and captured from Triton X-100 cell extracts on Ni-NTA; also called wtCosmc-1; wt-Cosmc-1
B1: binds.
